Assays:
HMGA1b [1] = biological target: T1, HMGA1b (UniProt P17096-2 1-96); assay: competition
HMGA1b [2] = biological target: T1, HMGA1b; assay: competition; remark: listed apart in the source
HMGA1b [3] = biological target: T1, HMGA1b; assay: EMSA

B1: Mix10 (dsDNA)
DNA 1: GGGCGTGACTGAGCGCGGCGGCCCCGCG
DNA 2: CGCGGGGCCGCCGCGCTCAGTCACGCCC
HMGA1b [1]
  binding result: no binding

B2: ATs10 (dsDNA)
DNA 1: GGGTTTTTTTTTTCGCGGCGGCCCCGCG
DNA 2: CGCGGGGCCGCCGCGAAAAAAAAAACCC
modifications: phosphorothioate linkages after each of the 10 T (T4-T13) of strand 1; complement unmodified
HMGA1b [2]
  binding signal: ~1 ratio to ATf10

B3: CG10 (dsDNA)
DNA 1: GGGCCCCCCCCCCCGCGGCGGCCCCGCG
DNA 2: CGCGGGGCCGCCGCGGGGGGGGGGGCCC
HMGA1b [1]
  binding result: no binding

B4: ATf10 (dsDNA)
DNA 1: CGCGGGGCCGCCGCGAAAAAAAAAAACCC
DNA 2: GGGTTTTTTTTTTTCGCGGCGGCCCCGCG
HMGA1b [3]
  binding result: binds

— article PMC3914216
